Values of other authors, collected in publication PMC6470598.
pKd: −log10 of the molar value.

Target: CTLA-4 (Homo sapiens) (UniProt P16410)
UniProt P16410, sequence (P16410 36-161): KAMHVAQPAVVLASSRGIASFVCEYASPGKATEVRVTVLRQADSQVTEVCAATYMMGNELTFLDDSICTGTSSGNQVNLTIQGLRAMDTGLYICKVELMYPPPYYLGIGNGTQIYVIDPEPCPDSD

In the case of tremelimumab, the pKd is listed as 8.23.
